Results on 2 substances are retold here after patent publication US20180335429.

Data set [1] deals with MMP substrate, 5-FAM-GGPLGVRGKK(CPQ2)-PEG2-C, presented on the iron-oxide nanoparticle (ABN) surface.
For data set [2], the system named is T1, thrombin substrate, 5-FAM-GGfPRSGGGK(CPQ2)-PEG2-C, presented on the nanoparticle surface.
T1 sequence: GGFPRSGGGKC

Sequence of recombinant MMP-9 (Enzo Life Sciences) (chain, as listed by the source): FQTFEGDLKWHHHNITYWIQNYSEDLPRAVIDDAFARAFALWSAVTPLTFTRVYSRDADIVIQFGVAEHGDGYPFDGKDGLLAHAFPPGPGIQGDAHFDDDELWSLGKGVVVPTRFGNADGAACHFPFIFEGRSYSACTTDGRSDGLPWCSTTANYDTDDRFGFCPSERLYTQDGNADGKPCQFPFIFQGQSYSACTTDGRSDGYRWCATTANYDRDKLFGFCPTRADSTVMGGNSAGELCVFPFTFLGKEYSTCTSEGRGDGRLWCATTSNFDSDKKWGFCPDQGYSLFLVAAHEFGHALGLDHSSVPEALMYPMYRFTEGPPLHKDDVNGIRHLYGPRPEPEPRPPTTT

Turning to recombinant MMP-9 (Enzo Life Sciences), in data set [1], the “cleavage velocity (V) at 6 µM substrate, high end over the tether lengths tested (0, 4, 24 and 114 PEG subunits)” value is given as “cleavage velocity (V) increased from 0.24 to 0.96 nM s^-1 at 6 µM”; the “cleavage velocity (V) at 6 µM substrate, low end over the tether lengths tested (0, 4, 24 and 114 PEG subunits)” value is “cleavage velocity (V) increased from 0.24 to 0.96 nM s^-1 at 6 µM”; the “fold change of cleavage with tether length at 6 µM substrate” value was “MMP9 cleavage was found to increase 4-fold for 6 µM of substrate”.
On to thrombin (Haematologic Technologies), for which the “cleavage of the substrate at varying linker lengths” value in data set [2] is on record as “thrombin cleavage of a thrombin-selective substrate (fPRSGGG ...) was optimally presented at an intermediate length”. For the same substance, in data set [1], the “cleavage velocity (V) at 6 µM substrate, long tether end” value is reported as “V at 6 µM of substrate decreased from 0.29 to 0.01 nM s^-1”; the “cleavage velocity (V) at 6 µM substrate, short tether end” value was “V at 6 µM of substrate decreased from 0.29 to 0.01 nM s^-1”; the “fold change of cleavage with tether length at 6 µM substrate” value was “thrombin cleavage decreased 1-fold at the same substrate concentration”.
